Earlier results, collected in US20240325609A1, “POLYPEPTIDE MONOLITHS” (Trustees of Tufts College, priority 2015, published 2024).

Conditions: room temperature for 14 days, not encapsulated

In the case of “HRP not encapsulated in silk: free horse radish peroxidase enzyme”, the “shelf stability of HRP” value is given as “not shelf-stable”.
